The term Ki denotes the equilibrium dissociation constant of an inhibitor or competing ligand from its target. The low end stands for tighter binding, the high end for weaker binding.

For two molecules, Ki results are on record in publication PMC2735620.

This experiment concerns the target Gαi/13 (N-terminally hexahistidine tagged chimera), AlF4−-activated. As to the kind of experiment: flow cytometry protein interaction assay. (In flow cytometry, cells or beads pass a laser one at a time.)

B1: LARG RH/DH/PH-F1098D (domain or fragment)
chain: SPSTRIAPHIIGAEDDDFGTEHEQINGQCSCFQSIELLKSRPAHLAVFLHHVVSQFDPATLLCYLYSDLYKHTNSKETRRIFLEFHQFFLDRSAHLKVSVPDEMSADLEKRRPELIPEDLHRHYIQTMQERVHPEVQRHLEDFRQKRSMGLTLAESELTKLDAERDKDRLTLEKERTCAEQIVAKIEEVLMTAQAVEEDKSSTMQYVILMYMKHLGVKVKEPRNLEHKRGRIGFLPKIKQSMKKDKEGEEKGKRRGFPSILGPPRRPSRHDNSAIGRAMELQKARHPKHLSTPSSVSPEPQDSAKLRQSGLANEGTDAGYLPANSMSSVASGASFSQEGGKENDTGSKQVGETSAPGDTLDGTPRTLNTVFDFPPPPLDQVQEEECEVERVTEHGTPKPFRKFDSVAFGESQSEDEQFENDLETDPPNWQQLVSREVLLGLKPCEIKRQEVINELFYTERAHVRTLKVLDQVFYQRVSREGILSPSELRKIFSNLEDILQLHIGLNEQMKAVRKRNETSVIDQIGEDLLTWFSGPGEEKLKHAAATFCSNQPFALEMIKSRQKKDSRFQTFVQDAESNPLCRRLQLKDIIPTQMQRLTKYPLLLDNIAKYTEWPTEREKVKKAADHCRQILNYVNQAVKEAENKQRLEDYQRRLDTSSLKLSEYPNVEELRNLDLTKRKMIHEGPLVWKVNRDKTIDLYTLLLEDILVLLQKQDDRLVLRCHSKILASTADSKHTFSPVIKLSTVLVRQVATDNKALDVISMSDNGAQIYELVAQTVSEKTVWQDLICRMAASVKEQS
As to B1, the Ki was 20 nM.

B2: LARG RH/DH/PH-E354K (domain or fragment)
chain: SPSTRIAPHIIGAKDDDFGTEHEQINGQCSCFQSIELLKSRPAHLAVFLHHVVSQFDPATLLCYLYSDLYKHTNSKETRRIFLEFHQFFLDRSAHLKVSVPDEMSADLEKRRPELIPEDLHRHYIQTMQERVHPEVQRHLEDFRQKRSMGLTLAESELTKLDAERDKDRLTLEKERTCAEQIVAKIEEVLMTAQAVEEDKSSTMQYVILMYMKHLGVKVKEPRNLEHKRGRIGFLPKIKQSMKKDKEGEEKGKRRGFPSILGPPRRPSRHDNSAIGRAMELQKARHPKHLSTPSSVSPEPQDSAKLRQSGLANEGTDAGYLPANSMSSVASGASFSQEGGKENDTGSKQVGETSAPGDTLDGTPRTLNTVFDFPPPPLDQVQEEECEVERVTEHGTPKPFRKFDSVAFGESQSEDEQFENDLETDPPNWQQLVSREVLLGLKPCEIKRQEVINELFYTERAHVRTLKVLDQVFYQRVSREGILSPSELRKIFSNLEDILQLHIGLNEQMKAVRKRNETSVIDQIGEDLLTWFSGPGEEKLKHAAATFCSNQPFALEMIKSRQKKDSRFQTFVQDAESNPLCRRLQLKDIIPTQMQRLTKYPLLLDNIAKYTEWPTEREKVKKAADHCRQILNYVNQAVKEAENKQRLEDYQRRLDTSSLKLSEYPNVEELRNLDLTKRKMIHEGPLVWKVNRDKTIDLYTLLLEDILVLLQKQDDRLVLRCHSKILASTADSKHTFSPVIKLSTVLVRQVATDNKALFVISMSDNGAQIYELVAQTVSEKTVWQDLICRMAASVKEQS
B2 registered an inhibitory constant (Ki) of 540 nM.
